The text below walks through data of patent US20210403565A1 (BIOATLA, published 2021).

Assay [1] addresses T1, human CTLA4 expressed on the cell surface of CHO cells (human, UniProt P16410 36-223).
T1 construct: whole, on cells; also called CHO-huCTLA4; huCTLA4
T1 sequence (looked up): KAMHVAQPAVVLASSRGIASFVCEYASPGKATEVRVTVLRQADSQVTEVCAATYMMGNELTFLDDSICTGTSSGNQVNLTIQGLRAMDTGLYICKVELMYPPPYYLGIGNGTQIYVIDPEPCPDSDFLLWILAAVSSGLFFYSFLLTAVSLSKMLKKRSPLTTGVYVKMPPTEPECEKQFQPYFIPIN
The assay can be described thus: FACS competition on CHO-huCTLA4: hB7-2 titrated against a fixed concentration of Ipilimumab, bound antibody detected, % competition; pH 6.0 per the text; no plateau reached (about 25 to 45 % at log 3.95); unit from the axis hB7-2 log[ng/mL].

Assay [2] addresses T1, human CTLA4 expressed on the cell …. The assay can be described thus: FACS competition on CHO-huCTLA4: hB7-2 titrated against a fixed concentration of Ipi Analog, bound antibody detected, % competition; pH 6.0 per the text; no plateau reached (about 25 to 45 % at log 3.95), fit marked ~; unit from the axis hB7-2 log[ng/mL].
For assay [3] the target is unchanged. As to the kind of experiment: FACS competition on CHO-huCTLA4: hB7-2 titrated against a fixed concentration of BA-087-08-32, bound antibody detected, % competition; pH 6.0 per the text; no plateau reached (about 25 to 45 % at log 3.95); unit from the axis hB7-2 log[ng/mL].
For assay [4] the target is unchanged. As to the kind of experiment: FACS competition on CHO-huCTLA4: hB7-2 titrated against a fixed concentration of BA-087-05-19, bound antibody detected, % competition; pH 6.0 per the text; no plateau reached (about 25 to 45 % at log 3.95); unit from the axis hB7-2 log[ng/mL].
Assay [5] concerns the target T2, recombinant cynomolgus CTLA4 extracellular domain (cynomolgus, UniProt G7PL88 36-161).
T2 construct: extracellular domain; also called cynoCTLA-4; cynoCTLA4
T2 sequence: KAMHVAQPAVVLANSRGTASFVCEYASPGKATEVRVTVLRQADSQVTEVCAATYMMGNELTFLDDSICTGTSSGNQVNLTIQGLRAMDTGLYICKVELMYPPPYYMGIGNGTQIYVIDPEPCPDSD
The assay can be described thus: SPR, cynomolgus CTLA4 ECD immobilised, pH 6.0, equilibrium fit. In general terms: In SPR one partner is held on a chip, and binding of the other changes the refractive index at the surface.

For assay [6], the target named is T2, recombinant cynomolgus CTLA4 …. The assay can be described thus: ELISA, immobilised cynoCTLA-4, pH 6.0, Jun. 27, 2017.
Assay [7] has the same target. As to the kind of experiment: ELISA, immobilised cynoCTLA-4, pH 6.0, mean +/- SD. (In general: An ELISA detects its analyte on a solid surface through an enzyme-linked reagent.)
For assay [8] the target is unchanged. As to the kind of experiment: ELISA, immobilised cynoCTLA-4, pH 6.0, Jun. 19, 2017.
Assay [9] concerns the target T3, cynomolgus CTLA4 expressed on the cell surface of CHO cells (cynomolgus, UniProt G7PL88 36-223).
T3 construct: whole, on cells; also called CHO-cynoCTLA4
T3 sequence: T1 sequence (looked up) with S14N, I18T, L106M
As to the kind of experiment: FACS on CHO-cynoCTLA4 cells, pH 6.0, mean. How it is done: The amount of antibodies bound on the cells was quantified using anti-human IgG antibody conjugated to fluorophores. EC₅₀ values at pH 6.0 and 7.4 for binding to cells were calculated using the nonlinear fit (variable slope, four parameters) model built into GraphPad Prism software (version 7.03). The expression levels of human CTLA4 or cynomolgus CTLA4 on the surface of the CHO cells were determined using a BD QuantiBRITE™ PE kit.

Assay [10] concerns the target T3, cynomolgus CTLA4 expressed on the cell …. The assay can be described thus: FACS, CHO cells expressing cynomolgus CTLA4 (CHO-cynoCTLA-4), pH 7.4, MFI; no unit in the table, unit from the axis Log Antibodies [ng/ml]. (Flow cytometry measures light scatter and fluorescence of single cells or particles in a stream.)

Numbering of substitutions follows the chain as printed.

B1: hB7-2 (hCD86) (ligand, human, UniProt P42081 24-247, looked up)
chain: APLKIQAYFNETADLPCQFANSQNQSLSELVVFWQDQENLVLNEVYLGKEKFDSVHSKYMGRTSFDSDSWTLRLHNLQIKDKGLYQCIIHHKKPTGMIRIHQMNSELSVLANFSQPEIVPISNITENVYINLTCSSIHGYPEPKKMSVLLRTKNSTIEYDGVMQKSQDNVTELYDVSISLSVSFPDVTSNMTIFCILETDKTRLLSSPFSIELEDPQPPPDHIP
Regarding B1, the EC50 was 7.19 µg/mL in assay [1], about 2.45 µg/mL in [2], 3.87 µg/mL in assay [3] and 3.73 µg/mL in [4].

B2: Ipilimumab (antibody, V domains shown)
VH: QVQLVESGGGVVQPGRSLRLSCAASGFTFSSYTMHWVRQAPGKGLEWVTFISYDGNNKYYADSVKGRFTISRDNSKNTLYLQMNSLRAEDTAIYYCARTGWLGPFDYWGQGTLVTVSS
VL: not shown
Regarding B2, in assay [5], the Kd was 6.58 nM. The EC50 turned out to be 0.021 µg/mL in assay [6]; 0.0153 µg/mL in assay [7]; 0.00966 µg/mL in [8]; 0.338 µg/mL in assay [9]; 0.177 µg/mL in assay [10].

The EC50 is the concentration needed to bring the measured effect to its halfway point. The term Kd denotes the equilibrium constant for the complex coming apart.
